# According to publication PMC9207808 (ACS Chemical Biology, 2022):
# Values joined by “and” are separate entries in the source; they are usually repeats but may differ in a detail not shown here. Identical values can stand only once. Like-named read-outs stand apart in the source and are kept apart here. Residues, ends and D or L forms follow the SMILES beside them. No end group written: not given here.
# Legend:
# DocSTm [1] = assay: Differential scanning fluorimetry (thermal stabilisation of Doc); format: binding, S. Typhimurium; settings: for melting temperature shift ΔTm: DSF, DocSTm 5 μM, analyte 50 μM, Tm with analyte minus Tm of free DocSTm (42.9 ± 0.9 °C), SYPRO Orange, 20 mM K2HPO4, 50 mM (NH4)2SO4, pH 8.0, triplicate; for Average Tm / Tm: DocSTm 5 µM + 50 µM binder; for Average Tm: average of 3 replicates
# Summary of the method: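 Tm values come from fitting the sigmoidal melt region to a Boltzmann function. Doc (5 μM final) was ramped 25–95 °C with SYPRO Orange (3× final) in pH 8.0 buffer of 20 mM K2HPO4 and 50 mM (NH4)2SO4; each condition in triplicate.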
# [2] = test system: S. Typhimurium (14028) Δphd-doc::Km strains coexpressing DocSTm; assay: Growth rescue experiment in S. Typhimurium; format: cell-based; settings: coexpression of DocSTm (pBAD33, arabinose) and Phd construct (pCA24N, basal expression); OD600 over time, M9 minimal medium; average of three independent experiments
# Procedure: The cotransformations above were also performed with an empty pBAD33 plasmid, as a control for the absence of DocSTm expression.
# For the growth rescue experiment, overnight (1% tryptone, 0.5% yeast extract, 0.5% NaCl, 1% glucose, 100 μg/mL of carbenicillin, and 34 μg/mL of chloramphenicol) cultures of the generated S. Typhimurium strains were diluted to an OD600 of approximately 0.006 into fresh M9 minimal medium supplemented with 0.5% or 1% arabinose, 0.4% glycerol, 0.4% casamino acids, 100 μg/mL of carbenicillin, and 34 μg/mL of chloramphenicol. Cell growth at a given time was monitored at OD600 with a Genesys 140 Visible Spectrophotometer (Thermo Scientific).
# DocSTm [3] = assay: Surface plasmon resonance binding to immobilised Doc; set-up: species or system S. Typhimurium; settings: for affinity to DocSTm greater than that of peptides 7, 10 and 14: SPR Kd ratio; for fold decrease in affinity (given as decrease/loss in Kd) compared with peptide 1: SPR Kd relative to wild-type peptide 1; for koff × 10^-6 / kon × 10^6: 1:1 kinetic fit, mean ± SD of at least 3 replicates; for kon × 10^6: single-cycle kinetics (multicycle for PhdSTm1-73); for Half-life of the complex: t1/2 = ln2 / koff
# Summary of the method: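 Binding constants are means ± SD of at least three replicates: steady-state Kd directly, or Kd calculated from kinetic kon and koff. Sensorgrams were double-referenced and fitted 1:1 after 80 s analyte injections (30 μL/min), either multicycle or single-cycle, over NTA-immobilised Doc. Running buffer was HEPES/500 mM NaCl/EDTA/Tween pH 8.0 at 22 °C.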
# DocSTm [4] = assay: Dot blot phosphorylation assay (EF-Tu phosphorylation by Doc); format: biochemical, S. Typhimurium; settings: α-pThr, DocSTm 1 μM, EF-TuSTm 3 μM, ATP 1 mM, inhibitor 10 μM to 5 nM (3-fold dilutions), 16 h at RT
# Summary of the method: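 Doc-mediated phosphorylation of EF-Tu was run for 16 h at RT, then the samples were spotted on nitrocellulose. Phospho-EF-Tu was detected with a rabbit monoclonal anti-phosphothreonine antibody and an HRP anti-rabbit secondary, read by chemiluminescence.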
# [5] = target: Doc1-122–His6 (DocSTm toxin) (Salmonella typhimurium); assay: SPR; Biacore S200; Doc-His6 captured on a Series S NTA chip (200-400 RU); peptide as analyte, single-cycle kinetics, six concentrations (3-fold dilutions), 30 uL/min; 22 C; 10 mM HEPES, 500 mM NaCl, 50 uM EDTA, 0.005% TWEEN 20, pH 8.0; kinetic 1:1 fit
# [6] = target: Doc1-122–His6 (DocSTm toxin) (Salmonella typhimurium); assay: as above; remark: listed apart in the source
# [7] = target: Doc1-122–His6 (DocSTm toxin) (Salmonella typhimurium); assay: as above; remark: listed apart in the source
# [8] = target: Doc1-122–His6 (DocSTm toxin) (Salmonella typhimurium); assay: as above; remark: listed apart in the source
# [9] = target: Doc toxin of Salmonella enterica serovar Typhimurium (DocSTm) (Salmonella enterica serovar Typhimurium); assay: SPR; DocSTm immobilised on a Series S NTA chip (150 nM, 200-400 RU); analytes in single-cycle kinetics, typically six concentrations, kinetic 1:1 fit; 22 °C; 10 mM HEPES, 500 mM NaCl, 50 μM EDTA, 0.005% TWEEN 20, pH 8.0
# [10] = target: Doc1-122–His6 (DocSTm toxin) (Salmonella typhimurium); assay: SPR; Biacore S200; Doc-His6 captured on a Series S NTA chip (200-400 RU); peptide as analyte, single-cycle kinetics, six concentrations (3-fold dilutions), 30 uL/min; 22 C; 10 mM HEPES, 500 mM NaCl, 50 uM EDTA, 0.005% TWEEN 20, pH 8.0; kinetic 1:1 fit; remark: listed apart in the source
# [11] = SPR, kinetic fit, KD calculated from mean koff and kon, SD propagated, 22 °C, pH 8.0
molecule,measurement,setting,value
CC[C@H](C)[C@H](NC(=O)[C@H](C)NC(=O)[C@H](C)NC(=O)[C@H](C)NC(=O)[C@H](CCC(=O)O)NC(=O)[C@H](CC(=O)O)NC(=O)[C@H](CC(=O)O)NC(=O)[C@H](CCSC)NC(=O)[C@H](Cc1c[nH]c2ccccc12)NC(C)=O)C(=O)N[C@@H](CCSC)C(=O)N[C@@H](C)C(=O)N[C@H](C(=O)N[C@@H](Cc1c[nH]cn1)C(=O)NCC(=O)N[C@@H](CC(N)=O)C(=O)N[C@@H](CCC(=O)O)C(=O)N[C@@H](CC(C)C)C(=O)N[C@@H](CCCNC(=N)N)C(=O)N[C@@H](CCC(=O)O)C(=O)N[C@@H](CC(C)C)C(=O)N[C@@H](C)C(=O)N[C@@H](CC(=O)O)C(=O)N[C@@H](CCCCN)C(=O)O)C(C)C [peptide 6] (Ac-WMDDEAAAIMAVHGNELRELADK-OH; C-terminus assumed),melting temperature shift ΔTm,DocSTm [1],21.1 ± 1.0 °C
same,Average Tm,DocSTm [1],64.0 ± 0.5 °C
same,Tm,DocSTm [1]; replicate 1,64.5 °C
same,Tm,DocSTm [1]; replicate 2,64.1 °C
same,Tm,DocSTm [1]; replicate 3,63.5 °C
same,rescue of Salmonella growth from DocSTm-induced growth inhibition (in words),[2],not able to counteract DocSTm-induced growth inhibition of Salmonella
same,"affinity to DocSTm greater than that of peptides 7, 10 and 14",DocSTm [3],at least 12 fold
same,fold decrease in affinity (given as decrease/loss in Kd) compared with peptide 1,DocSTm [3],8- to 30 fold
same,Kd,"DocSTm [3]; SPR kinetic fit, replicate 1",1 nM
same,Kd,"DocSTm [3]; SPR kinetic fit, replicate 2",0.919 nM
same,Kd,"DocSTm [3]; SPR kinetic fit, replicate 3",0.745 nM
same,koff × 10^-6,"DocSTm [3]; SPR, 22 °C, pH 8.0",843 ± 231 ×10^-6 s-1
same,kon × 10^6,"DocSTm [3]; SPR, 22 °C, pH 8.0",0.989 ± 0.434 ×10^6 M-1 s-1
same,Kd,DocSTm [3]; [11],0.852 nM
same,Half-life of the complex,DocSTm [3],13.8 ± 3.6 min
same,inhibition of EF-TuSTm phosphorylation by DocSTm (in words),DocSTm [4],among the poorest inhibitors of EF-TuSTm phosphorylation
CC[C@H](C)[C@H](NC(=O)[C@H](C)NC(=O)[C@H](C)NC(=O)[C@H](Cc1ccccc1)NC(=O)[C@H](CCC(=O)O)NC(=O)[C@H](CC(=O)O)NC(=O)[C@H](CC(=O)O)NC(=O)[C@H](CCSC)NC(=O)[C@H](Cc1c[nH]c2ccccc12)NC(C)=O)C(=O)N[C@@H](CCSC)C(=O)N[C@@H](C)C(=O)N[C@H](C(=O)N[C@@H](Cc1c[nH]cn1)C(=O)NCC(=O)N[C@@H](CC(N)=O)C(=O)N[C@@H](CCC(=O)O)C(=O)N[C@@H](CC(C)C)C(=O)N[C@@H](CCCNC(=N)N)C(=O)N[C@@H](CCC(=O)O)C(=O)N[C@@H](C)C(=O)N[C@@H](C)C(=O)N[C@@H](CC(=O)O)C(=O)N[C@@H](CCCCN)C(=O)O)C(C)C [peptide 17] (Ac-WMDDEFAAIMAVHGNELREAADK-OH; C-terminus assumed),melting temperature shift ΔTm,DocSTm [1],15.2 ± 1.0 °C
same,Average Tm,DocSTm [1],58.0 ± 0.4 °C
same,Tm,DocSTm [1]; replicate 1,58.5 °C
same,Tm,DocSTm [1]; replicate 2,57.9 °C
same,Tm,DocSTm [1]; replicate 3,57.8 °C
same,rescue of Salmonella growth from DocSTm-induced growth inhibition (in words),[2],not able to counteract DocSTm-induced growth inhibition of Salmonella
same,"affinity to DocSTm greater than that of peptides 7, 10 and 14",DocSTm [3],at least 12 fold
same,fold decrease in affinity (given as decrease/loss in Kd) compared with peptide 1,DocSTm [3],8- to 30 fold
same,Kd,"DocSTm [3]; SPR kinetic fit, replicate 1",2.1 nM
same,Kd,"DocSTm [3]; SPR kinetic fit, replicate 2",1.98 nM
same,Kd,"DocSTm [3]; SPR kinetic fit, replicate 3",1.02 nM
same,koff × 10^-6,"DocSTm [3]; SPR, 22 °C, pH 8.0",5967 ± 404 ×10^-6 s-1
same,kon × 10^6,"DocSTm [3]; SPR, 22 °C, pH 8.0",3.837 ± 1.398 ×10^6 M-1 s-1
same,Kd,DocSTm [3]; [11],1.55 ± 0.58 nM
same,Half-life of the complex,DocSTm [3],1.92 ± 0.12 min
same,inhibition of EF-TuSTm phosphorylation by DocSTm (in words),DocSTm [4],among the poorest inhibitors of EF-TuSTm phosphorylation
peptide 4 (PhdSTm52-73-D54A),koff,[5],6.2e-05 s⁻¹
same,kon,[5],4.73e+06 M⁻¹ s⁻¹
same,Kd,[6],0.0128 nM and 0.0166 nM and 0.0101 nM
same,koff,[6],8.12e-05 s⁻¹ and 4.76e-05 s⁻¹ and 5.84e-05 s⁻¹
same,kon,[6],4.89e+06 M⁻¹ s⁻¹ and 4.73e+06 M⁻¹ s⁻¹ and 4.58e+06 M⁻¹ s⁻¹
peptide 5 (PhdSTm52-73-E55A),Kd,[5],0.049 nM
same,koff,[5],7.5e-05 s⁻¹
same,kon,[5],1.54e+06 M⁻¹ s⁻¹
same,Kd,[7],0.0489 nM and 0.0513 nM and 0.0469 nM
same,koff,[7],7.11e-05 s⁻¹ and 7.49e-05 s⁻¹ and 8.02e-05 s⁻¹
same,kon,[7],1.5e+06 1/(M s) (2×) and 1.7e+06 1/(M s)
peptide 6 (PhdSTm52-73-F56A),koff,[5],0.000843 s⁻¹
same,kon,[5],989000 M⁻¹ s⁻¹
same,Kd,[8],1 nM and 0.919 nM and 0.745 nM
same,koff,[8],0.000717 s⁻¹ and 0.000702 s⁻¹ and 0.00111 s⁻¹
same,kon,[8],714000 M⁻¹ s⁻¹ and 764000 M⁻¹ s⁻¹ and 1.49e+06 M⁻¹ s⁻¹
Ac-WMDAEFAAIMAVHGNELRELADK [peptide 4 (Phd 52-73 D54A)],Kd,[9],0.013 nM
same,fold improvement of koff against peptide 1,[9],1.5 fold
same,fold improvement of kon against peptide 1,[9],4 fold
Ac-WMDDEAAAIMAVHGNELRELADK [peptide 6 (Phd 52-73 F56A)],Kd,[9],0.852 nM
Ac-WMDDEFAAIMAVHGNELREAADK [peptide 17 (Phd 52-73 L70A)],Kd,[9],1.55 nM
Ac-EFAAIMAVHGNELRELA-OH [peptide 22 (PhdSTm55-71)],koff,[5],0.000503 s⁻¹
same,kon,[5],1.45e+06 M⁻¹ s⁻¹
same,Kd,[10],0.342 nM and 0.336 nM and 0.365 nM
same,koff,[10],0.000521 s⁻¹ and 0.000492 s⁻¹ and 0.000495 s⁻¹
same,kon,[10],1.5e+06 1/(M s) (2×) and 1.4e+06 1/(M s)
Ac-WMADEFAAIMAVHGNELRELADK [peptide 3 (Phd 52-73 D53A)],Kd,[9],0.013 nM
same,fold improvement of koff against peptide 1,[9],1.5 fold
same,fold improvement of kon against peptide 1,[9],4 fold
Ac-FAAIMAVHGNELREL-OH [peptide 23 (PhdSTm56-70)],koff,[5],0.00279 s⁻¹
same,kon,[5],1.41e+06 M⁻¹ s⁻¹
same,Kd,[10],1.85 nM and 1.94 nM and 2.18 nM
same,koff,[10],0.00284 s⁻¹ and 0.00279 s⁻¹ and 0.00276 s⁻¹
same,kon,[10],1.53e+06 M⁻¹ s⁻¹ and 1.44e+06 M⁻¹ s⁻¹ and 1.26e+06 M⁻¹ s⁻¹
Ac-EFAAIMAVHGNELRELADK-OH [peptide 21 (PhdSTm55-73)],Kd,[5],0.396 nM
same,koff,[5],0.000496 s⁻¹
same,kon,[5],1.25e+06 M⁻¹ s⁻¹
same,Kd,[10],0.41 nM and 0.412 nM and 0.365 nM
same,koff,[10],0.000551 s⁻¹ and 0.000501 s⁻¹ and 0.000436 s⁻¹
same,kon,[10],1.3e+06 1/(M s) and 1.2e+06 1/(M s) (2×)
